Assay results as given in PMC11686114 (Frontiers in Immunology, 2024).
Ends that are not written are not given here.

T1: TRBV5-1 antigenic peptide No. 1 (…) conjugated to BSA (human)
T1 sequence (peptide): TQTPRYLIKTRGQQ

T2: TRBV5-1 antigenic peptide No. 1 (TQTPRYLIKTRGQQ), peptide alone (Homo sapiens)
T2 construct: short form of antigenic peptide No. 1 of the TRBV5-1 segment of the human TCR beta chain; also called Ag1; Peptide N. 1; source: synthetic peptide (Proteogenix)
T2 chain: TQTPRYLIKTRGQQ

T3: TRBV5-1 antigenic peptide No. 1 (TQTPRYLIKTRGQQ), biotinylated (Homo sapiens, also: biotinylated (site not given here))
T3 construct: short form of antigenic peptide No. 1 of the TRBV5-1 segment of the human TCR beta chain; probably held on streptavidin, since its control is PBS-streptavidin (surmise); also called Ag3; peptide-biotin; source: synthetic peptide (Proteogenix)
T3 chain: TQTPRYLIKTRGQQ


What was measured:
Test in all cases: ELISA; confirmatory monoclonal phage ELISA; antigens peptide alone, peptide-BSA, peptide-biotin; controls PBS, 10% BSA-PBS, PBS-streptavidin; phage dilution factors 1, 3, 9
[1] = molecular target: T1, TRBV5-1 antigenic peptide No. 1 (…) conjugated to BSA (human)
[2] = molecular target: T2, TRBV5-1 antigenic peptide No. 1 …; conditions: one partner purified
[3] = molecular target: T3, TRBV5-1 antigenic peptide No. 1 …; conditions: one partner purified

Row | Binder | ELISA signal at phage dilution factor 1 [1] | ELISA signal at phage dilution factor 3 [1] | ELISA signal at phage dilution factor 9 [1] | ELISA signal at phage dilution factor 1 [2] | ELISA signal at phage dilution factor 3 [2] | ELISA signal at phage dilution factor 9 [2] | ELISA signal at phage dilution factor 1 [3] | ELISA signal at phage dilution factor 3 [3] | ELISA signal at phage dilution factor 9 [3]
1 | scFv clone C10 (scFv, V domains shown, tested as phage clone in the confirmatory monoclonal ELISA; source: phage display clone from the human naive scFv library LiAb-SFMAX (Proteogenix), amplified in E. coli TG1) VH: EVQLVQSGAEVKKPGSSVKVSCKASGGTFSSYAISWVRQAPGQGLEWMGGIIPIFGTANYAQKFQGRVTITADKSTSTAYMELSSLRSEDTAVYYCAREPLRGYSGYDFYYYGMDVWGQGTMVTVSS VL: SYELTQPHSVSGSPGETVTISCAGSGGSIASNYVQWYQQRPGSAPTTLIYEDKVRPSGVPDRFSGSIDYSSDSASLTISGLKTEDEADYYCQSADSTSTYVFGTGTKVTVL | 3.83 | 3.55 | 3.04 | 1.19 | 0.75 | 0.42 | 2.11 | 1.72 | 1.62
2 | scFv clone A8 (scFv, V domains shown, tested as phage clone in the confirmatory monoclonal ELISA; source: phage display clone from the human naive scFv library LiAb-SFMAX (Proteogenix), amplified in E. coli TG1) VH: QVQLVQSGPEMKKAGASVRVSCKGSGYTFSSFDINWVRQVPGQGLEWMGWMNPDTGNTGLAQKFQGRVTMTRDTSIRTAYMELRSLRSDDTAVYYCARDAPRNGRGMDVWGQGTMVTVSS VL: SYELTQPPSVSVSPGQTARITCSGDALPKQYAYWYQQKPGQAPVLVIYQDTKRPSGIPERFSGSSSGTTVTLTISGVQAEDEADYYCQSADSSGTYPVFGGGTKLTVL | 4.58 | 4.2 | 4.14 | 0.94 | 0.37 | 0.14 | 2.09 | 2.06 | 2
3 | scFv clone D5 (scFv, V domains shown, tested as phage clone in the confirmatory monoclonal ELISA; source: phage display clone from the human naive scFv library LiAb-SFMAX (Proteogenix), amplified in E. coli TG1) VH: QVQLVQSGAEVKKPGASVKVSCKPSGYYFNGYDITWVRQAIGQGLEWMGWMNPNSGNRDYAHQFQGRLTMTWDTSLSTAYLELNNLQSDDTAIYYCARERVSSGLDFWGQGTLVTVSS VL: SYELTQPPSVSVSPGQTARITCSGDALPKQYAYWYQQKPGQAPVLLIYKDSERPSGIPERFSGSSSGTTVTLTISGVQAEDEADYYCQSADSSGTYVVFGGGTQLTVL | 4.03 | 3.56 | 3.5 | 0.75 | 0.32 | 0.13 | 2.38 | 1.9 | 1.67
4 | scFv clone A12 (scFv, V domains shown, tested as phage clone in the confirmatory monoclonal ELISA; lead scFv from which the r-hIgG1 mAb was made; also called lead scFv; source: phage display clone from the human naive scFv library LiAb-SFMAX (Proteogenix), amplified in …) VH: QVQLQQWGAGLLKPSETLSLTCAVYGGSFSGYYWSWIRQPPGKGLEWIGEINHSGSTNYNPSLKSRVTISVDTSKNQFSLKLSSVTAADTAVYYCARWDLDYWGQGTLVTVSS VL: EIVLTQSPLSLPVTLGQSASISCRSSQSLVHSDGNTYLNWFQQRPGQSPRRLIYQVSKRDSGVPDRFSGSGSGTDFTLRISRVEAEDVGFYYCMQGTHWPPITFGQGTRLEIK | 2.93 | 1.82 | 0.78 | 0.99 | 0.33 | 0.12 | 2.79 | 1.99 | 1.22
5 | scFv clone A2 (scFv, V domains shown, tested as phage clone in the confirmatory monoclonal ELISA; source: phage display clone from the human naive scFv library LiAb-SFMAX (Proteogenix), amplified in E. coli TG1) VH: QVQLQQSGPGLVKPSQTLSLTCAISGDSVSSNSAAWNWIRQSPSRGLEWLGRTYYRSKWYNDYAVSVKSRITINPDTSKNQFSLQLNSVTPEDTAVYYCARDQAAAEVYFDYWGQGTLVTVSS VL: NFMLTQPHSVSESPGKTVTISCTRSSGSIASNYLQWYQQRPGSAPTTVIYEDNQRPSGVPDRFSGSIDSSSNSASLTISGLKTEDEADYYCQSYDNRNHWVFGGGTQLTVL | 4.3 | 4.04 | 3.84 | 0.95 | 0.91 | 0.35 | 2.46 | 1.85 | 1.28
6 | scFv clone A5 (scFv, V domains shown, as printed identical to the VH of A2; tested as phage clone in the confirmatory monoclonal ELISA; source: phage display clone from the human naive scFv library LiAb-SFMAX (Proteogenix), amplified in E. coli TG1) VH: QVQLQQSGPGLVKPSQTLSLTCAISGDSVSSNSAAWNWIRQSPSRGLEWLGRTYYRSKWYNDYAVSVKSRITINPDTSKNQFSLQLNSVTPEDTAVYYCARDQAAAEVYFDYWGQGTLVTVSS VL: NFMLTQPHSVSESPGKTVTISCTRSSGSIASNYVQWYQQRPGSSPTTVIYEDNQRPSGVPDRFSGSIDSSSNSASLTISGLKTEDEADYYCQSYDSSNHWVFGGGTKVTVL | 4.09 | 3.8 | 3.74 | 0.88 | 0.37 | 0.11 | 2.73 | 2.53 | 1.55
